From patent publication US10280218B2, “Antibodies binding to BMP4, and uses thereof” (ACADEMISCH MEDISCH CENTRUM, priority 2014, dated 2019)

B1: C8E7: E7 linked to C8, hetero-dimer VHH bihead (protein)
chain: EVQLVESGGGLVQAGGSLRLSCAASGRTFRINDMGWYRQAPGKSRDMVARITSGGNTNYADSVKGRFTISRDNAKNTVYLQMNSLKPEDTAVYYCNADGLRFDSTRYRPFDSWGQGTQVTVSSGGGGSGGGGSEVQLVESGGGLVQAGGSLRLSCAASGSIRGFVAMAWYRQAPGKQREWVATVTNGGTLYGDSVKGRFTGSRDNAKNTVYLQMNSLKPEDTAVYYCALRQIGASGYDYWGQGTQVTVSS
B2: hNoggin (protein)
chain: QHYLHIRPAPSDNLPLVDLIEHPDPIFDPKEKDLNETLLRSLLGGHYDPGFMATSPPEDRPGGGGGAAGGAEDLAELDQLLRQRPSGAMPSEIKGLEFSEGLAQGKKQRLSKKLRRKLQMWLWSQTFCPVLYAWNDLGSRFWPRYVKVGSCFSKRSCSVPEGMVCKPSKSVHLTVLRWRCQRRGGQRCGWIPIQYPIISECKCSC

Key:
[1] = target: T1, BMP4 (Homo sapiens, UniProt P12644); assay: Phosphorylation of SMAD1/5/8 in EPC2-hTERT cells (western blot); format: cell-based; parameters: purchased R&D Systems; details: 100 ng/ml BMP4, 4 hours; indicated concentrations
T1 sequence (P12644 293-408): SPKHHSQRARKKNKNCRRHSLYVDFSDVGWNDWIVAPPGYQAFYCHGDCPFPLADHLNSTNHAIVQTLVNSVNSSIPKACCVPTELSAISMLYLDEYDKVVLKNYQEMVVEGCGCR
Experimental: EPC2-hTERT cells were stimulated with mouse BMP4 and pSMAD activation detected by Western Blotting.
To detect phosphorylation of SMAD1/5/8 in vitro, EPC2-hTERTs were cultured in 24-well plates and activated with 100 ng/ml of BMP2, BMP4, BMP5, BMP6 or BMP7 (R&D Systems) for 4 hours with or without VHH at the indicated concentrations. After activation, each well was washed twice with ice-cold PBS and lysed with 100 μl M-PER lysis buffer (Sigma-Aldrich, MO, United States) containing Halt Protease and Phosphatase Inhibitor Cocktail (Thermo Scientific, Landsmeer, The Netherlands). Cell debris were pelleted and supernatant was collected. 15 μg of protein was then separated by 10% SDS-PAGE and transferred onto a PVDF membrane (Millipore, Amsterdam, The Netherlands). The blots were then blocked with 5% milk in Tris-buffered saline supplemented with 0.1% Tween-20 (TBST) for 1 hour at room temperature and washed in TBST before overnight incubation at 4° C. with antiphospho-SMAD1/5/8 (Cell Signalling), anti-βactin (Santa Cruz) or anti-GAPDH (Millipore) in 5% Bovine Serum Albumin (BSA). […] After a final wash with TBST, blots were incubated for 5 minutes in LumiGlow (BIOKE, Leiden, The Netherlands) and then chemiluminescence was detected using a Fuji LAS4000 illuminator (Fujifilm Medical Systems, Stamford, Conn.). Protein was quantitated with Image).

[2] = target: T2, BMP7 (Homo sapiens, UniProt P18075); assay: BMP activity luciferase reporter assay (BRE-luciferase, ID1 promoter) in C2C12 cells; format: cell-based, mouse; details: 200 ng/ml hBMP7, 16 h; 500 ng/ml
T2 sequence (P18075 293-431): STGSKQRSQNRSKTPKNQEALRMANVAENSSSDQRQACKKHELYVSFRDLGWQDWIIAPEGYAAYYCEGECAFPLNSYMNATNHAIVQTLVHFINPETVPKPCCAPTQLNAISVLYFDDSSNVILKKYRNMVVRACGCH
Experimental: (§1) One of the most studied BMP target genes is the Inhibitor of Differentiation 1 (ID1). This is an immediate early gene that is activated by binding of the phosphorylated SMADs to its promoter region (López-Rovira et al., 2002). Thus, we employed the BMP-responsive C2C12 cells, which are stably transfected with the BRE-luciferase vector containing the BMP-Responsive-Element (the mouse ID1 promoter) cloned into the pGL3 luciferase vector (Zilberberg 2007). […] C2C12 cells were treated with the different BMPs with or without our VHHs or human Noggin at a concentration of 5 μg/ml. Luciferase activity was measured after 16 hours incubation. Most of the transcriptional data is in concordance with the results obtained with the phosphorylation of SMAD1/5/8.
(§2) C2C12 cells were plated in 96-well plates at 5×10^3 cells/well and cells were allowed to attach overnight. 100 μl of DMEM with 0.1% BSA were added in each well. VHH antibodies and human Fc-Noggin at the indicated concentrations were added at the same time. Wells with unstimulated cells were added as controls. Cells were treated in triplicate with the BMPs at the indicated concentrations for 16 hours. Luciferase activity was measured by adding 100 μl of luciferase substrate solution from the Bright-Glo™ Luciferase Assay System (Promega Benelux, Leiden, The Netherlands). After 3 minutes of incubation, luciferase activity was measured with Synergy HT Multi-Mode Microplate Reader (Biotek, Winooski, Vt., United States). Luciferase values were normalized to background activity (activity of wells with no cells) and represented as ratio to the activity of BMP-stimulated cells.
C2C12 cells were cultured in 96-well plates at 5×10^3 cells/well. […]

[3] = system: BMP12; assay: as above; format: cell-based, mouse; details: 50 ng/ml hBMP12, 16 h; 500 ng/ml
Experimental: C2C12 cells were plated in 96-well plates when they reached confluency, cells were treated in triplicate with 25 ng/ml of BMP9, 50 ng/ml of BMP10 or 50 ng/ml of BMP12 (all from R&D Systems), for 16 hours. VHHs or Noggin were added at a concentration of 5 ug/ml. C2C12 cells or HEK293 were plated on 12-well plates and starved for 5 hours, before stimulation with 2 ng/ml of TGF-β (R&D Systems) or 100 ng/ml Activin-A (R&D Systems), respectively. VHHs at the indicated concentrations were added at the same time. After 1 hour cells were lysed, and protein isolation and SDS-PAGE separation were performed as described previously. For protein detection the following antibodies were used: antiphospho-SMAD2 at 1:1000 (Cell Signaling).
C2C12 cells were cultured in 96-well plates at 5×10^3 cells/well. After overnight attachment cells were stimulated with 10 ng/ml hBMP4 (Cat No. 314-BP-020; R&D Systems), 50 ng/ml hBMP2 (Cat No. 355-BM-010; R&D Systems), 200 ng/ml hBMP5 (Cat No. 615-BMC-020; R&D Systems), 50 ng/ml hBMP6 (Cat No. 506-BP-020; R&D Systems), 200 ng/ml hBMP7 (Cat No. 354-BP-010; R&D Systems), 25 ng/ml hBMP9 (Cat No. 3209-BP-010; R&D Systems), 25 ng/ml hBMP10 (Cat No. 2926-BP-025; R&D Systems), 50 ng/ml hBMP12 (Cat No. 779-G7-010; R&D Systems) and with or without VHH antibodies: C4C4 and C8C8 at 500 ng/ml; natural antagonist: mNoggin (Cat No. 1967-NG-025; R&D Systems), hNoggin (Cat No. 6057-NG; R&D Systems) and mGremlin (cat#956-GR-050; R&D Systems) at 500 ng/ml; chemical antagonist: 0.5 μM LDN-193189 (Cat No. 11802; Cayman Chemical) and 0.2 μM DMH1 (Cat No. 57146; Selleckchem).

[4] = target: T3, BMP5 (Homo sapiens, UniProt P22003); assay: as above; format: cell-based, mouse; parameters: purchased R&D Systems 615-BMC-020; details: 200 ng/ml hBMP5, 16 h; VHH, Noggin, Gremlin 500 ng/ml; LDN 0.5 μM; DMH1 0.2 μM
T3 sequence (P22003 317-454): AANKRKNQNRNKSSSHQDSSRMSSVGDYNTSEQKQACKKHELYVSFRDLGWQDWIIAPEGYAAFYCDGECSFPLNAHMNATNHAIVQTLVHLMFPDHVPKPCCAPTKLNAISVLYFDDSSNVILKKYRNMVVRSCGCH
Experimental: as §1
as §2, with “Cells were treated in triplicate with the BMPs at the indicated concentrations for 16 hours.” left out, “Luciferase values were normalized to background activity (activity of wells with no cells) and represented as ratio to the activity of BMP-stimulated cells.” left out

Row | Molecule | inhibition of BMP4 signaling (pSMAD1/5/8), dimer compared to monomer [1] | inhibition of BMP-7 signals, comparison of inhibitors [2] | inhibition of BMP12 signals, comparison of inhibitors [3] | inhibition of BMP5 signals, comparison of inhibitors [4]
1 | B1 | better at inhibiting both BMP2 and BMP4 as compared to the E7 monomer |  |  | 
2 | B2 |  | inhibited | inhibited | greatly inhibit
